Here are results for five molecules from patent US5863775A, “Control of parasites” (The University of Leeds, priority 1994, dated 1999).

Where a SMILES comes first, the peptide text is derived from it. [ ]: non-standard residue; d: D form. The star is where a group is joined. Sta = CC(C)C[C@H](N)[C@@H](O)CC(=O)O; Isovaleryl = CC(C)CC(=O)*

Assay [1] relates to Ascaripain from Ascaris suum. Description: Sensitivity of Ascaripain to protease inhibitors. The assay is classed as biochemical. The text has this: Ascaripain from Ascaris suum is similar to Ascaridia cysteine protease. Both prefer hydrolysis of Z-Phe-Arg-aminomethylcoumarin and both have limited action on Z-Phe-Arg-Arg-aminomethylcoumarin and Bz-Arg-aminomethylcoumarin. […] Pepstatin and serine protease inhibitors have no effect.

Assay [2] relates to Ascaridia galli cysteine protease. Description: Inhibition of cysteine protease fraction from Ascaridia galli. Type of assay: biochemical.
In the next assay the test system is Caenorhabditis elegans. Briefly: C. elegans feeding trials on cystatin-supplemented medium. To be noted: for larvae that achieved normal development to adulthood: hatched and left to develop on supplemented media; for larvae that completed development: hatched on supplemented media, then transferred to normal media; for mean eggs laid per hermaphrodite: hermaphrodites on supplemented plates, 2.5 mg 1^-1, ten replicates. The assay is classed as in vivo. The procedure: Caenorhabditis elegans was cultured on NGM agar carrying a lawn of OP50 E. coli as described by Wood (1988). Populations were maintained for 5 days after which time an agar plug from the colony plate was inserted onto fresh media. When required, the Oc-I (see Example 6) or BSA was added to the cooled medium to a final concentration of 2.5 mg 1^-1 just before polymerisation. Single nematodes were transferred from non-supplemented solid agar plates to plates containing Oc-I or BSA.
Feeding trials were set-up using C. elegans to examine the effect of Oc-I on nematode survival and growth. As soon as hermaphrodites became apparent on normal agar they were transferred to individual plates containing either Oc-I or BSA and egg laying was observed. Ten replicates were carried out for each condition.
Subsequently the larvae hatched under normal conditions were removed to media supplemented with either Oc-I or BSA. 50 larvae were removed at 6 h, 12 h, 24 h and 30 h (corresponding to the four larval stages L1, L2, L3 and L4 respectively).
Larvae of C. elegans were transferred to agar plates with E. coli in which the medium was supplemented with 0-10 mg/L of Oc-I and the subsequent mortality of the animals during feeding was estimated from activity of the animals.

The next assay relates to Ascaridia galli. Description: Ascaridia galli worms held in vitro for 4 days with maize inhibitor. As for the experimental part: 35 day old Ascaridia were removed from the host and thoroughly rinsed with 0.9% (w/v) NaCl in distilled water before transfer to 3 cm plastic Petri-dishes containing basic culture medium: CaCl2 2H2 O (0.24 mg/ml), Na2 HCO, (0.2 mg/ml), NaCl (9.0 mg/ml) and D-glucose. (1 mg/ml). Streptomycin sulphate (100 mg) and penicillin (60 u) were included to reduce microbial contamination.
Three treatments of five replicates containing 4 worms each were used to assess the potency, of the maize inhibitor. Each treatment was carried out in the basal culture medium supplemented with:
(i) 0.5 mg/ml bovine serum albumin (BSA);
(ii) 0.5 mg/ml maize protein recovered by the batch method of which zeacystatin was estimated to be at 22 μg/ml;
(iii) no supplement to the medium.
The worms were kept for 4 days in the dark at 37° C. and solutions changed daily. Zeacystatin concentration was estimated using a papain inhibition assay as previously and by comparison of the inhibition derived from the batch method with that achieved for the zeacystatin obtained by affinity chromatography earlier.

Assay [3] deals with RH strain Toxoplasma gondii in MDBK cells. Briefly: Toxoplasma gondii growth in MDBK cell culture. The assay is classed as cell-based. The note with it: 24 hours. The procedure:
Tachyzoites of T. gondii were produced by intraperitoneal passage in Tuck's Number 1 outbred mice, approximately 10^7 parasites are injected intra-peritoneally and parasites for culture were harvested three days later by peritoneal lavage with F12 medium and used immediately.
MDBK cells were plated onto 13 mm cover-slip cultures at a density of 1×10^5 per cover slip and incubated overnight in HAM's F12 medium (GIBCO) plus 10% foetal calf serum at 37° C. Tachyzoites of RH strain Toxoplasma gondii (2×10^6) were loaded onto each cover slip and incubated for 4 hours at 37° C. to allow invasion of the DBK cells. Cultures were then washed with F12 medium to remove extracellular parasites and the inhibitor was added at a concentration of 0, 30 or 120 μg/ml. The cultures were incubated for a further 24 hours at 37° C. and then removed, washed with PBS, fixed with Bouin's solution and stained with Geimsa. Parasite growth was assessed by scoring approximately 200 cells for the number of infected cells and the total number of parasites in the sample.

Setting [4] is: 30 h on normal media (L4) before transfer to supplemented media.

`CC(C)C[C@H](NC(=O)[C@H]1O[C@@H]1C(=O)O)C(=O)NCCCCN=C(N)N` [E64]: the “sensitivity of Ascaripain from Ascaris suum to inhibitor” value in assay [1] is “highly sensitive”. For the same molecule, the “sensitivity of Ascaridia cysteine protease to inhibitor” value in assay [2] is recorded as “highly sensitive”. Moreover, in assay [2] (10 μM E64, pre-incubated 20 min at 37° C., Z-Phe-Arg-β-napthylamine, FIG. 6), the “inhibition of proteolytic activity of protease from Ascaridia galli” value is listed as “over 90%”.
As for `CC(C)CC(=O)N[C@H](C(=O)N[C@H](C(=O)N[C@@H](CC(C)C)[C@@H](O)CC(=O)N[C@@H](C)C(=O)N[C@@H](CC(C)C)[C@@H](O)CC(=O)O)C(C)C)C(C)C` [Pepstatin] (Isovaleryl-VV[Sta]A[Sta]-OH), the “sensitivity of Ascaripain from Ascaris suum to inhibitor” value in assay [1] is “no effect”. Besides, the “sensitivity of Ascaridia cysteine protease to inhibitor” value in assay [2] was “no effect”.
Regarding “bovine serum albumin [BSA, reference compound]”, in the assay on Caenorhabditis elegans, the “larvae that achieved normal development to adulthood” value is given as 95%, the “larvae that completed development” value is 96.0% and the “mean eggs laid per hermaphrodite” value came to 300. Moreover, in the assay with Caenorhabditis elegans (hatched from eggs laid on supplemented media, transferred to normal media), the “juveniles developing into adult nematodes” value is on record as “All”. In addition, the “Activity Score of A. galli” value in the assay on Ascaridia galli (0.5 mg/ml supplement in basic medium (maize protein: zeacystatin estimated 22 μg/ml), 4 days, dark, 37° C., scale 0 (dead) to 3 (frequently active)) is reported as 2.75 ± 0.35. For the same molecule, in the assay with Ascaridia galli (0.5 mg/ml supplement, 4 days at 37° C.), the “state of worms in culture” value is “remained active for 4 days”.

B1: egg white cystatin: protease inhibitor of cysteine proteases (a cystatin) in chick egg white (protein, UniProt P01038 24-139, looked up)
Cystatin: SEDRSRLLGAPVPVDENDEGLQRALQFAMAEYNRASNDKYSSRVVRVISAKRQLVSGIKYILQVEIGRTTCPKSSGDLQSCEFHDEPEMAKYTTCTFVVYSIPWLNQIKLLESKCQ
Regarding B1, the “sensitivity of Ascaripain from Ascaris suum to inhibitor” value in assay [1] is recorded as “highly sensitive”. The “sensitivity of Ascaridia cysteine protease to inhibitor” value in assay [2] is listed as “highly sensitive”.

B2: Oc-I: oryzacystatin I, rice cystatin cloned from Oryza sativa L. japonica, expressed in E. coli with six N-terminal histidine residues (protein, UniProt P09229 27-140, looked up)
Cysteine proteinase inhibitor …: EAHRAGGEGEEKMSSDGGPVLGGVEPVGNENDLHLVDLARFAVTEHNKKANSLLEFEKLVSVKQQVVAGTLYYFTIEVKEGDAKKLYEAKVWEKPWMDFKELQEFKPVDASANA
modifications: N-terminal His6 tag
notes: oryzacystatin I, rice cystatin cloned from Oryza sativa L. japonica, expressed in E. coli with six N-terminal histidine residues
Take B2: the number parasites/cell was 6.3 ± 0.63 in assay [3] (30 μg/ml); 4.2 ± 0.17 in assay [3] (120 μg/ml, P<0.05, listed as Inhibitor); 4.2±0.17 in assay [3] (120 μg/ml, P<0.05, listed as inhibitor). Moreover, the “% cells infected” value is recorded as 66 ± 2% in assay [3] (30 μg/ml, listed as Inhibitor); 66±2% in assay [3] (30 μg/ml, listed as inhibitor); 59 ± 0.6% in assay [3] (120 μg/ml, listed as Inhibitor); 59±0.6% in assay [3] (120 μg/ml, listed as inhibitor). Besides, the “larvae that did not reach the adult stages” value in the assay on Caenorhabditis elegans (setting [4]) is on record as 24%. The “larvae that reached adult male or hermaphrodite stages” value with Caenorhabditis elegans (setting [4]) was determined as 76%. In the assay with Caenorhabditis elegans (cystatin present in the medium), the eggs hatched result was “Greater than 95%”. The “larvae that achieved normal development to adulthood” value in the assay with Caenorhabditis elegans is “less than 2%”. Besides, the “larvae that completed development” value in the assay on Caenorhabditis elegans was determined as 97.0%. The “mean eggs laid per hermaphrodite” value with Caenorhabditis elegans was determined as 300. For the same molecule, in the assay on Caenorhabditis elegans (larvae which failed to develop on Oc-I plates), the “recovery of larvae after transfer to fresh unsupplemented media” value was “failed to respond to the fresh food source and showed no signs of further development”. The “LD50 for mortality of C. elegans larvae” value in the assay with Caenorhabditis elegans (medium supplemented with 0-10 mg/L, probit analysis, FIG. 10) was “approximately 7 mg OcI per liter of medium”. In the assay with Caenorhabditis elegans (transferred 6, 12 or 24 h after hatching (L1, L2, L3) to supplemented media), the “larvae developing further to the mature adult stages” value is listed as “none”.
